Measured values taken from patent US20090291081A1 (AbbVie / Abbott, published 2009).

How the values were obtained:
human IL-1α = target: T1, human IL-1α (human, UniProt P01583 113-271); assay: Table 60 heading; dAbs from selection on antigen
T1 construct: also called IL-1alpha; hIL-1α
T1 sequence (looked up): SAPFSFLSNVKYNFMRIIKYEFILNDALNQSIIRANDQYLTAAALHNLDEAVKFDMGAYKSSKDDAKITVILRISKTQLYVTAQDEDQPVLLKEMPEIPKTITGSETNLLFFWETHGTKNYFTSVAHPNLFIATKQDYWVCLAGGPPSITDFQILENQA

human IL-1β [1] = target: T2, human IL-1β (human, UniProt P01584 117-269); assay: yeast surface Fab display, flow cytometry titration
T2 construct: also called hIL-1β; rhIL-1 beta

human IL-1β [2] = target: T3, human IL-1β (human, UniProt P01584 117-269); assay: Table 60 heading; dAbs from selection on antigen
T3 construct: also called IL-1beta; hIL-1β

Binder	binding result (human IL-1α)	further results
ABT1-122-750xH (other, VK dAb) VL: DIQMTQSPSSLSASVGDRVAITCSASQHIWTEISWYQQKPGKAPKLLIYGSASRQKGVPSRFSGSGSGTDFTLTISSLQPEDFATYHCKQFAYFPNTFGQGTKVEIKR	binds	–
ABT1-207 (other, VH dAb) VH: EVQLLESGGGLIQPGGSLRLSCAASGFTFGRYYMSWVRQAPGKGLEWVSSIDYLGTNTYYADSVKGRFTISRDNSKNTLYLQMNSLRAEDTAVYYCAKLTRIRPPNFDYWGQGTLVTVSS	binds	–
ABT1-95-A4 (other, VK dAb) VL: DIQMTQSPSSLSASVGDRVTITCRASRPGVRNLRWYQQKPGKAPKLLIYSRSFLEPGVPSRFSGSGSGTDFTLTISSLQPEDFATYHCLQGYRWPPTFGQGTKVEIKR	binds	–
ABT1-95-A1 (other, VK dAb) VL: DIQMTQSPSSLSASVGDRVTITCRASRPGVRNLRWYQQKPGKAPKLLIYHVSDLEPGVPSRFSGSGSGTDFTLTISSLQPEDFATYHCRQGYVWPVPFDQGTKVEIKR	binds	–
ABT1-222 (other, VK dAb) VL: DIQMTQSPSSLSASVGDRVTITCRASQPITRNLRWYQQKPGKAPKLLIYHSSVLQSGVPSRFSGSGSGTDFTLTISSLQPEDFATYYCQQGYRWPVTFGQGTKVEIKR	binds	–
ABT1-122-553 (other, VK dAb) VL: DIQMTQSPSSLSASVGDRVTITCRASQPIWTELKWYQQKPGKAPKLLIYGSSSLQSGVPSRFSGSGSGTDFTLTISSLQPEDFATYYCQQFAYFPATFGQGTKVEIKR	binds	–
ABT2-108/ABT1-122 Fab on yeast surface (Fab, V domains shown) VH: EVQLLESGGGLVQPGGSLRLSCAASGFTFAEYTMMWVRQAPGKGLEWVSRIGQDGKNTYYADSVKGRFTISRDNSKNTLYLQMNSLRAEDTAVYYCAKYTGRVGVHHLFDYWGQGTLVTVSS VL: DIQMTQSPSSLSASVGDRVTITCRASQPIWTELNWYQQKPGKAPKLLIYGSSSLQSGVPSRFSGSGSGTDFTLTISSLQPEDFATYYCQQFAYFPATFGQGTKVEIKR	–	EC50 (human IL-1β [1]): 5.78 nM
ABT1-122-552 (other, VK dAb) VL: DIQMTQSPSSLSASVGDRVTITCRASLGVWTELNWYQQKPGKAPKLLIYGSSSLQSGVPSRFSGSGSGTDFTLTISSLQPEDFATYYCQQFAYFPATFGQGTKVEIKR	binds	–
ABT1-122-513 (other, VK dAb) VL: DIQMTQSPSSLSASVGDRVTITCRASQPIWTELNWYQQKPGKAPKLLIYGSGSRQRGVPSRFSGSGSGTDFTLTISSLQPEDFATYYCKQFAYFPATFGQGTKVEIKR	binds	–
ABT1-122-508 (other, VK dAb) VL: DIQMTQSPSSLSASVGDRVTITCRASQPIWTELNWYQQKPGKAPKLLIYGSSSLQRGVPSRFSGSGSGTDFTLTISSLQPEDFATYYCQQFAYFPATFGQGTKVEIKR	binds	–
ABT1-122-556 (other, VK dAb) VL: DIQMTQSPSSLSASVGDRVTITCRASQPIWTELNWYQQKPGKAPKLLIYGSSSLQSGVPSRFSGSGSGTDFTLTISSLQPEDFATYHCQQFAYFPATFGQGTKVEIKR	binds	–
ABT1-122-512 (other, VK dAb) VL: DIQMTQSPSSLSASVGDRVTITCRASQPIWTELNWYQQKPGKAPKLLIYGSAKRQRGVPSRFSGSGSGTDFTLTISSLQPEDFATYYCKQFAYFPATFGQGTKVEIKR	binds	–
ABT1-122-505 (other, VK dAb) VL: DIQMTQSPSSLSASVGDRVTITCRASQPIWTELNWYQQKPGKAPKLLIYGSSSLQSGVPSRFSGSGSGTDFTLTISSLQPEDFATYYCKQFAYFPATFGQGTKVEIKR	binds	–
ABT1-122-750MT (other, VK dAb) VL: DIQMTQSPSSLSASVGDRVTITCSASQHIWTEMSWYQQKPGKTPKLLIYGSASRQKGVPSRFSGSGSGTDFTLTISSLQPEDFATYYCKQFAYFPNTFGQGTKVEIKR	binds	–
ABT1-122-551 (other, VK dAb) VL: DIQMTQSPSSLSASVGDRVTITCRAKFNIWTELNWYQQKPGKTPKLLIYGSSSLQSGVPSRFSGSGSGTDFTLTISSLQPEDFATYYCQQFAYFPATFGQGTKVEIKR	binds	–
ABT1-122-555 (other, VK dAb) VL: DIQMTQSPSSLSASVGDRVTITCRASQPIWTELNWYQQKPGKTPKLLIYGSSSLQSGVPSRFSGSGSGTDFTLTISSLQPEDFATYYCQQFAYFPATFGQGTKVEIKR	binds	–

Binder	binding result (human IL-1α)	further results
ABT1-122-750MH (other, VK dAb) VL: DIQMTQSPSSLSASVGDRVTITCSASQHIWTEMSWYQQKPGKAPKLLIYGSASRQKGVPSRFSGSGSGTDFTLTISSLQPEDFATYHCKQFAYFPNTFGQGTKVEIKR	binds	–
ABT1-122-510 (other, VK dAb) VL: DIQMTQSPSSLSASVGDRVTITCRFSYPIWTELNWYQQKPGKAPKLLIYGSSSLQSGVPSRFSGSGSGTDFTLTISSLQPEDFATYYCQQFAYFPATFGQGTKVEIKR	binds	–
ABT1-122-750M (other, VK dAb) VL: DIQMTQSPSSLSASVGDRVTITCSASQHIWTEMSWYQQKPGKAPKLLIYGSASRQKGVPSRFSGSGSGTDFTLTISSLQPEDFATYYCKQFAYFPNTFGQGTKVEIKR	binds	–
ABT2-108-603/ABT1-122 Fab on yeast surface (Fab, V domains shown) VH: EVQLLESGGGLVQPGGSLRLSCAASGFTFAEYTMMWVRQAPGKGLEWVSRITDAGKNTYYADSVKGRFTISRDNSKNTLYLQMNSLRAEDTAVYYCAKYTGRVGVHHLFDYWGQGTLVTVSS VL: DIQMTQSPSSLSASVGDRVTITCRASQPIWTELNWYQQKPGKAPKLLIYGSSSLQSGVPSRFSGSGSGTDFTLTISSLQPEDFATYYCQQFAYFPATFGQGTKVEIKR	–	EC50 (human IL-1β [1]): 1.35 nM
ABT2-108-620S (other, VH dAb) VH: EVQLLESGGGLVQPGGSLRLSCAASGFTFSEESWMWVRQAPGKGLEWVSRIGQDGKNTYYREDVKGRFTISRDNSKNTLYLQMNSLRAEDTAVYYCAKYTGRIMGHHLFDYWGQGTLVTVSS	–	binding result (human IL-1β [2]): binds
ABT2-108-620x (other, VH dAb) VH: EVQLLESGGGLVQPGGSLRLSCAASGFTFAEESWMWVRQAPGKGLEWVSRIGQDGKNTYYREDVKGRFTISRDNSKNTLYLQMNSLRAEDTAVYYCAKYTGRIMGHHLFDYWGQGTLVTVSS	–	binding result (human IL-1β [2]): binds
ABT2-108-617 (other, VH dAb) VH: EVQLLESGGGLVQPGGSLRLSCAASGFTFAEYTMMWVRQAPGKGLEWVSRIGQDGKNTYYADSVKGRFTISRDNSKNTLYLQMNSLRAEDTAVYYCAKYTGRIFTHHLFDYWGQGTLVTVSS	–	binding result (human IL-1β [2]): binds
ABT2-108-606 (other, VH dAb) VH: EVQLLESGGGLVQPGGSLRLSCAASGFTFAEYTMMWVRQAPGKGLEWVSRIGQDGKNTYYRSSVKGRFTISRDNSKNTLYLQMNSLRAEDTAVYYCAKYTGRVGVHHLFDYWGQGTLVTVSS	–	binding result (human IL-1β [2]): binds
ABT2-108-603 (other, VH dAb) VH: EVQLLESGGGLVQPGGSLRLSCAASGFTFAEYTMMWVRQAPGKGLEWVSRITDAGKNTYYADSVKGRFTISRDNSKNTLYLQMNSLRAEDTAVYYCAKYTGRVGVHHLFDYWGQGTLVTVSS	–	binding result (human IL-1β [2]): binds
ABT2-108-612 (other, VH dAb) VH: EVQLLESGGGLVQPGGSLRLSCAASGFTFAEYTMMWVRQAPGKGLEWVSRIGQDGKNTYYADSVKGRFTISRDNSKNTLYLQMNSLRAEDTAVYYCAKYTGRIMGHHLFDYWGQGTLVTVSS	–	binding result (human IL-1β [2]): binds
ABT2-108-601/ABT1-122 Fab on yeast surface (Fab, V domains shown) VH: EVQLLESGGGLVQPGGSLRLSCAASGFTFAEESWMWVRQAPGKGLEWVSRIGQDGKNTYYADSVKGRFTISRDNSKNTLYLQMNSLRAEDTAVYYCAKYTGRVGVHHLFDYWGQGTLVTVSS VL: DIQMTQSPSSLSASVGDRVTITCRASQPIWTELNWYQQKPGKAPKLLIYGSSSLQSGVPSRFSGSGSGTDFTLTISSLQPEDFATYYCQQFAYFPATFGQGTKVEIKR	–	EC50 (human IL-1β [1]): 0.522 nM
ABT2-108-605 (other, VH dAb) VH: EVQLLESGGGLVQPGGSLRLSCAASGFTFAEYTMMWVRQAPGKGLEWVSRIGQDGKNTYYREDVKGRFTISRDNSKNTLYLQMNSLRAEDTAVYYCAKYTGRVGVHHLFDYWGQGTLVTVSS	–	binding result (human IL-1β [2]): binds
ABT2-108-604 (other, VH dAb) VH: EVQLLESGGGLVQPGGSLRLSCAASGFTFAEYTMMWVRQAPGKGLEWVSRVTYDGKNTYYADSVKGRFTISRDNSKNTLYLQMNSLRAEDTAVYYCAKYTGRVGVHHLFDYWGQGTLVTVSS	–	binding result (human IL-1β [2]): binds
ABT2-108-602/ABT1-122 Fab on yeast surface (Fab, V domains shown) VH: EVQLLESGGGLVQPGGSLRLSCAASGFTFAEEKYMWVRQAPGKGLEWVSRIGQDGKNTYYADSVKGRFTISRDNSKNTLYLQMNSLRAEDTAVYYCAKYTGRVGVHHLFDYWGQGTLVTVSS VL: DIQMTQSPSSLSASVGDRVTITCRASQPIWTELNWYQQKPGKAPKLLIYGSSSLQSGVPSRFSGSGSGTDFTLTISSLQPEDFATYYCQQFAYFPATFGQGTKVEIKR	–	EC50 (human IL-1β [1]): 0.474 nM
ABT2-108-607 (other, VH dAb) VH: EVQLLESGGGLVQPGGSLRLSCAASGFTFAEYTMMWVRQAPGKGLEWVSRIGQDGKNTYYRSDVKGRFTISRDNSKNTLYLQMNSLRAEDTAVYYCAKYTGRVGVHHLFDYWGQGTLVTVSS	–	binding result (human IL-1β [2]): binds
